# Test results: patent US20190153061A1
# B1: BCMA-7 CAR (139106) (protein)
# chain: EVQLVETGGGLVQPGGSLRLSCAVSGFALSNHGMSWVRRAPGKGLEWVSGIVYSGSTYYAASVKGRFTISRDNSRNTLYLQMNSLRPEDTAIYYCSAHGGESDVWGQGTTVTVSSASGGGGSGGRASGGGGSEIVMTQSPATLSVSPGERATLSCRASQSVSSKLAWYQQKPGQAPRLLMYGASIRATGIPDRFSGSGSGTEFTLTISSLEPEDFAVYYCQQYGSSSWTFGQGTKVEIKTTTPAPRPPTPAPTIASQPLSLRPEACRPAAGGAVHTRGLDFACDIYIWAPLAGTCGVLLLSLVITLYCKRGRKKLLYIFKQPFMRPVQTTQEEDGCSCRFPEEEEGGCELRVKFSRSADAPAYKQGQNQLYNELNLGRREEYDVLDKRRGRDPEMGGKPRRKNPQEGLYNELQKDKMAEAYSEIGMKGERRRGKGHDGLYQGLSTATKDTYDALHMQALPPR
# B2: BCMA-5 CAR (139104) (protein)
# chain: EVQLLETGGGLVQPGGSLRLSCAVSGFALSNHGMSWVRRAPGKGLEWVSGIVYSGSTYYAASVKGRFTISRDNSRNTLYLQMNSLRPEDTAIYYCSAHGGESDVWGQGTTVTVSSASGGGGSGGRASGGGGSEIVLTQSPATLSVSPGESATLSCRASQSVSSNLAWYQQKPGQAPRLLIYGASTRASGIPDRFSGSGSGTDFTLTISSLQAEDVAVYYCQQYGSSLTFGGGTKVEIKTTTPAPRPPTPAPTIASQPLSLRPEACRPAAGGAVHTRGLDFACDIYIWAPLAGTCGVLLLSLVITLYCKRGRKKLLYIFKQPFMRPVQTTQEEDGCSCRFPEEEEGGCELRVKFSRSADAPAYKQGQNQLYNELNLGRREEYDVLDKRRGRDPEMGGKPRRKNPQEGLYNELQKDKMAEAYSEIGMKGERRRGKGHDGLYQGLSTATKDTYDALHMQALPPR
# B3: BCMA-4 CAR (139103) (protein)
# chain: QVQLVESGGGLVQPGRSLRLSCAASGFTFSNYAMSWVRQAPGKGLGWVSGISRSGENTYYADSVKGRFTISRDNSKNTLYLQMNSLRDEDTAVYYCARSPAHYYGGMDVWGQGTTVTVSSASGGGGSGGRASGGGGSDIVLTQSPGTLSLSPGERATLSCRASQSISSSFLAWYQQKPGQAPRLLIYGASRRATGIPDRFSGSGSGTDFTLTISRLEPEDSAVYYCQQYHSSPSWTFGQGTKLEIKTTTPAPRPPTPAPTIASQPLSLRPEACRPAAGGAVHTRGLDFACDIYIWAPLAGTCGVLLLSLVITLYCKRGRKKLLYIFKQPFMRPVQTTQEEDGCSCRFPEEEEGGCELRVKFSRSADAPAYKQGQNQLYNELNLGRREEYDVLDKRRGRDPEMGGKPRRKNPQEGLYNELQKDKMAEAYSEIGMKGERRRGKGHDGLYQGLSTATKDTYDALHMQALPPR
# B4: BCMA-1 CAR (139100) (protein)
# chain: QVQLVQSGAEVRKTGASVKVSCKASGYIFDNFGINWVRQAPGQGLEWMGWINPKNNNTNYAQKFQGRVTITADESTNTAYMEVSSLRSEDTAVYYCARGPYYYQSYMDVWGQGTMVTVSSASGGGGSGGRASGGGGSDIVMTQTPLSLPVTPGEPASISCRSSQSLLHSNGYNYLNWYLQKPGQSPQLLIYLGSKRASGVPDRFSGSGSGTDFTLHITRVGAEDVGVYYCMQALQTPYTFGQGTKLEIKTTTPAPRPPTPAPTIASQPLSLRPEACRPAAGGAVHTRGLDFACDIYIWAPLAGTCGVLLLSLVITLYCKRGRKKLLYIFKQPFMRPVQTTQEEDGCSCRFPEEEEGGCELRVKFSRSADAPAYKQGQNQLYNELNLGRREEYDVLDKRRGRDPEMGGKPRRKNPQEGLYNELQKDKMAEAYSEIGMKGERRRGKGHDGLYQGLSTATKDTYDALHMQALPPR
# Target: B-cell maturation antigen (BCMA) expressed on cells (human), Q02223
# Experiment: cell-based or functional assay
# Sequence of B-cell maturation antigen (BCMA) expressed on cells (human), Q02223 (Q02223 whole entry): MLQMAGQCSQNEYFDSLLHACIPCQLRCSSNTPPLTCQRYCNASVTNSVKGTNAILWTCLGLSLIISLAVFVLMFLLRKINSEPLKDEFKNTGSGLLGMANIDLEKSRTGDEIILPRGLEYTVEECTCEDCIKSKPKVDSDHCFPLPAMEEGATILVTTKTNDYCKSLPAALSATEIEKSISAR
Binder,Cell killing EC50; KMS11-luc,"JNL binding assay, ratio to K562; K562-BCMA","JNL binding assay, ratio to K562; NCI-H929","JNL binding assay, ratio to K562; RPMI 8226","Proliferation, CD3 ratio to no target; K562-BCMA","Proliferation, CD3 ratio to no target; KMS11-luc","Proliferation, CD3 ratio to no target; NCI-H929","Proliferation, CD3 ratio to no target; RPMI 8226","Proliferation, CD4 ratio to no target; K562-BCMA","Proliferation, CD4 ratio to no target; KMS11-luc"
B1,0.15 not printed,2.55,2.36,2.77,1.72,1.71,1.8,1.62,2.17,1.96
B2,0.21 not printed,2.34,2.34,2.4,1.62,1.61,1.72,1.73,2.19,1.9
B3,0.13 not printed,4.47,3.31,6.25,7.37,8.63,8.64,8.14,9.21,8.6
B4,0.68 not printed,4.6,4.55,5.06,1.59,1.38,4.97,2.96,1.57,1.24

# Same assay, conditions: not given
Binder,"Proliferation, CD4 ratio to no target; NCI-H929","Proliferation, CD4 ratio to no target; RPMI 8226","Proliferation, CD8 ratio to no target; K562-BCMA","Proliferation, CD8 ratio to no target; KMS11-luc","Proliferation, CD8 ratio to no target; NCI-H929","Proliferation, CD8 ratio to no target; RPMI 8226"
B1,2.23,1.91,1.08,1.35,1.18,1.19
B2,2.23,2.15,0.99,1.27,1.11,1.25
B3,9.86,10.1,5.66,8.74,7.42,6.19
B4,5.57,2.43,1.61,1.56,4.14,3.58
